From article PMC10861912, “Viral afterlife: SARS-CoV-2 as a reservoir of immunomimetic peptides that reassemble into proinflammatory supramolecular complexes” (Proceedings of the National Academy of Sciences of the …, 2024)

Assay: Linear charge density of the peptide
Type: physicochemical

LL-37: highly cationic human cathelicidin, host antimicrobial peptide
linear charge density: ~ +1.1 e/nm
